According to patent US8173771B2, “Humanin receptor or humanin-like polypeptide receptor” (Keio Univeristy, priority 2005, dated 2012):

Target: T1, G-CSFR/gp130 chimera proteins (Homo sapiens, UniProt P40189+Q99062)
T1 construct: the extracellular domain of the human G-CSF receptor fused to the full transmembrane domain; expressed in transfected cells; host or cells: F11 cells
T1 sequence (Q99062+P40189 with tags, fused parts or gaps): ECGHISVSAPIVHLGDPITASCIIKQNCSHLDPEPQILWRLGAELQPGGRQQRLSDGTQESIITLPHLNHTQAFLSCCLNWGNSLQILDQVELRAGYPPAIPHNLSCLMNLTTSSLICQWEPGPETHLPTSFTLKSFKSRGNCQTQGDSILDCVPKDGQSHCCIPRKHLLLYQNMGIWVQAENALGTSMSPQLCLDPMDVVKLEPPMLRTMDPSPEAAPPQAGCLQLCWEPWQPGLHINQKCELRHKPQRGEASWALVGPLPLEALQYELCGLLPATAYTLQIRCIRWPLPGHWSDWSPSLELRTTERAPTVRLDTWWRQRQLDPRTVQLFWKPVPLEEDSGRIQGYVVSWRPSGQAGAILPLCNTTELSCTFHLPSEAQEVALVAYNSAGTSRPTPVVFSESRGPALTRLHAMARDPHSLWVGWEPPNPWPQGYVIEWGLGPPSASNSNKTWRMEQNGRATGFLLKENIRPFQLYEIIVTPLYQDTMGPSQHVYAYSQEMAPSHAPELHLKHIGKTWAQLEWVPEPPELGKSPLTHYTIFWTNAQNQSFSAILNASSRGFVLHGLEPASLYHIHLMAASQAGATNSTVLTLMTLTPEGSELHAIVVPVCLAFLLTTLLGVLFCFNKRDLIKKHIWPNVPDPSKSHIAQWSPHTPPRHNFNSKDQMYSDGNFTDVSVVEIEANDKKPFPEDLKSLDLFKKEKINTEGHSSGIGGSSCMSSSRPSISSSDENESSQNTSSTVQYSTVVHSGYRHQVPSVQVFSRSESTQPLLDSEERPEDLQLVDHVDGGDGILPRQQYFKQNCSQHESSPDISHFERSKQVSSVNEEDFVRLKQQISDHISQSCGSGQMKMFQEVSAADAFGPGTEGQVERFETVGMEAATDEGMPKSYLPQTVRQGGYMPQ
Assay: G-CSF stimulation of G-CSFR/gp130 chimera proteins in F11 cells, cell mortality by Trypan blue exclusion
Type: cell-based
Conditions: 100 nM; G-277 expressed
Protocol: B) F11 cells were transfected with 0.5 μg of the pcDNA3 vector or pcDNA3-APP in association with 0.5 μg of the pEFBos vector or the pEFBos vectors encoding the extracellular domain of the human G-CSF receptor fused to the full transmembrane domain and a C-terminally truncated intracytoplasmic domain of gp130 (named “G-CSFR/gp130”). G-CSFR/gp130 (277) contains the full intracytoplasmic domain of gp130 corresponding to amino acids 1-277, while G-CSFR/gp130 (25), (68), and (133) contain the intracytoplasmic domains corresponding to amino acids 1-25, 1-68, and 1-133, respectively. At 24 hr after transfection, the cells were added with indicated amounts of human G-CSF. Cell mortality was determined by Trypan blue exclusion assay at 72 hr after transfection. The results of immunoblot analysis of the expression of […] are shown in photos.
C) Instead of the pcDNA3-V6421-APP vector, pcDNA3-K595 N/M596L-APP (NL-APP), M146L-PS1 and N141-I-PS2 vectors were used to do the same experiments as in FIG. 2A. The results of immunoblot analysis of the expression of NL-APP, M146L-PS1 and N141-I-PS2 are shown in photos.
D) F11 cells were transfected with 0.5 μg of the pEFBos vector or pEF-G85R-SOD1 in association with 0.5 μg of the pEFBos vector or each pEFBos vector encoding G-CSFR/gp130 (277) or G-CSFR/gp130 (25). At 24 hr after transfection, the cells were added with indicated amounts of human G-CSF. Cell mortality was determined by Trypan blue exclusion assay at 72 hr after transfection. The results of the expression of G85R-SOD1, which were confirmed by the immunoblot analysis, are shown in photos.
Neurohybrid F11 cells and pcDNA3 vectors encoding V642I-APP, K595N/M596L-APP (NL-APP), M146L-PS1, and N141I-PS2 cDNA were prepared as already described (Hashimoto et al, 2000, 2001a, 2003). pCAG-human gp130 and pCAG-human gp130 ED (the extracellular domain of human gp130) were prepared as described (Kumanogoh et al., 1997). pcDNA3 vectors encoding the extracellular domain of the G-CSF receptor fused to the full-length transmembrane domain and various portions of the intracellular domains of human gp130, were prepared as described (Fukada et al, 1996). The intracellular domain of gp130 was C-terminally truncated. A chimera protein named G-277 contained a 277 amino acid-long full intracellular domain of gp130 (SEQ ID NO:35), while G-195, G-133, G-68, and G-25 contained the amino acids 1-195 (SEQ ID NO:36), 1-133 (SEQ ID NO:37), 1-68 (SEQ ID NO:38), and 1-25 (SEQ ID NO:39) intracellular portions, respectively. C-terminally myc-tagged human WSX-1 and myc-tagged mouse CREME9 cDNAs were amplified from human and mouse embryo cDNA (BioChain) by PCR using sets of sense primers and antisense primers: 5′-[…]-3′ (SEQ ID NO:3) and 5′-[…]-3′ (SEQ ID NO:4) for human WSX-1; 5′-[…]-3′ (SEQ ID NO:5); and 5′-[…]-3′ (SEQ ID NO:6) for mouse CREME9. Plasmids encoding C-terminally V5-tagged human CNTF-R (V %-CNTF-R) and rat IL-6R (pUCM18-rat IL-6R) were purchased from Invitrogen and American Culture Collection, respectively. A pEFBos vector comprising familial ALS (FALS) gene G85R-SOD1 was kindly provided by Dr. Shoji Tsuji. Cosmid of human wild […] was constructed by inserting a full-length gp130 into a SwaI site of pAxCAwt (TaKaRa).
The transfection procedures were as described (Hashimoto et al, 2000, 2001a, 2003). F11 cells, seeded at 7×10^4/well in 6-well dishes, were transfected with indicated vectors. Transfection efficiency in these protocols has been determined to be invariably around 70%. At 72 hrs after transfection, the Trypan blue exclusion assay and LDH assay were performed as a cell-death assay and the WST-8 assay was performed as cell-viability assays (Hashimoto et al, 2000, 2001a b, 2003). HN was added to the culture medium usually at 5 hrs after transfection, but in some cases at 24 hrs after transfection.

B1: G-CSF: human G-CSF, ligand stimulating G-CSFR/gp130 chimera proteins (protein, UniProt P09919 31-207, looked up)
Granulocyte …: TPLGPASSLPQSFLLKCLEQVRKIQGDGAALQEKLVSECATYKLCHPEELVLLGHSLGIPWAPLSSCPSQALQLAGCLSQLHSGLFLYQGLLQALEGISPELGPTLDTLQLDVADFATTIWQQMEELGMAPALQPTQGAMPAFASAFQRRAGGVLVASHLQSFLEVSYRVLRHLAQP
prevention of NL-APP-, M146L-PS1-, N141I-PS2-mediated neuronal cell death: prevented | prevention of neuronal cell death induced by V642I-APP: prevented
